Data published in the supplement of paper PMC9112550, “Optimization of the antimicrobial peptide Bac7 by deep mutational scanning” (BMC Biology, 2022).

Each sequence was assayed on Escherichia coli TOP10 (assay: shrunken log2 fold change of peptide-encoding DNA abundance (4.5 h post-induction vs induction); higher = less antimicrobial activity (less host growth inhibition)). Conditions: time post-induction: 4.5 h; library: site-saturation at positions 5, 18, 19, 20.
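Also: peptides expressed intracellularly from a pBAD plasmid library in pooled LB shake-flask culture, induced with 0.3% L-arabinose, DNA abundance read by NGS, three biological replicates, DESeq2 with apeglm shrinkage.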

| Sequence | shrunken log2 fold change |
| --- | --- |
| RRIRSRPPRLPRPRPRPNAEPRP | 0.572 |
| RRIRSRPPRLPRPRPRPTHAPRP | 0.368 |
| RRIRLRPPRLPRPRPRPFKHPRP | -0.156 |
| RRIRMRPPRLPRPRPRPYTHPRP | -0.174 |
| RRIRFRPPRLPRPRPRPAWYPRP | -0.103 |
| RRIRCRPPRLPRPRPRPTELPRP | -0.106 |
| RRIRSRPPRLPRPRPRPDGEPRP | 0.0597 |
| RRIRERPPRLPRPRPRPMQNPRP | 0.168 |
| RRIRGRPPRLPRPRPRPTGVPRP | 0.742 |
| RRIRIRPPRLPRPRPRPNYVPRP | -0.115 |
| RRIRMRPPRLPRPRPRPVCFPRP | 0.126 |
| RRIRDRPPRLPRPRPRPKKKPRP | -0.0718 |
| RRIRARPPRLPRPRPRPNMAPRP | 0.114 |
| RRIRYRPPRLPRPRPRPPWGPRP | -0.0336 |
| RRIRSRPPRLPRPRPRPGGLPRP | 0.177 |
| RRIRWRPPRLPRPRPRPNISPRP | -0.279 |
| RRIRYRPPRLPRPRPRPPKWPRP | 0.223 |
| RRIRFRPPRLPRPRPRPINWPRP | -0.113 |
| RRIRQRPPRLPRPRPRPWSFPRP | -0.026 |
| RRIRYRPPRLPRPRPRPYEHPRP | -0.0505 |
| RRIRYRPPRLPRPRPRPYVAPRP | -0.206 |
| RRIRFRPPRLPRPRPRPEPNPRP | 0.256 |
| RRIRTRPPRLPRPRPRPDLQPRP | -0.0382 |
| RRIRIRPPRLPRPRPRPTFKPRP | -0.102 |
| RRIRYRPPRLPRPRPRPRINPRP | -0.196 |

| Sequence | shrunken log2 fold change |
| --- | --- |
| RRIRWRPPRLPRPRPRPTYWPRP | 0.235 |
| RRIRVRPPRLPRPRPRPLVGPRP | 0.726 |
| RRIRTRPPRLPRPRPRPYHTPRP | -0.723 |
| RRIRIRPPRLPRPRPRPSPRPRP | -0.0771 |
| RRIRGRPPRLPRPRPRPMHSPRP | 0.668 |
| RRIRTRPPRLPRPRPRPSAWPRP | 0.0388 |
| RRIRFRPPRLPRPRPRPWGHPRP | -0.000438 |
| RRIRGRPPRLPRPRPRPWCEPRP | 0.0333 |
| RRIRMRPPRLPRPRPRPRWIPRP | 0.00451 |
| RRIRNRPPRLPRPRPRPWADPRP | -0.124 |
| RRIRWRPPRLPRPRPRPWQCPRP | -0.233 |
| RRIRPRPPRLPRPRPRPYITPRP | -0.739 |
| RRIRNRPPRLPRPRPRPHVFPRP | -0.151 |
| RRIRPRPPRLPRPRPRPERSPRP | 0.0565 |
| RRIRYRPPRLPRPRPRPGVVPRP | -0.354 |
| RRIRKRPPRLPRPRPRPSMRPRP | 0.915 |
| RRIRWRPPRLPRPRPRPAGCPRP | 0.28 |
| RRIRRRPPRLPRPRPRPHYVPRP | -0.13 |
| RRIRQRPPRLPRPRPRPASIPRP | -0.0578 |
| RRIRLRPPRLPRPRPRPGSNPRP | -0.57 |
| RRIRHRPPRLPRPRPRPNRVPRP | -0.672 |
| RRIRARPPRLPRPRPRPFNEPRP | -0.1 |
| RRIRERPPRLPRPRPRPGHNPRP | -0.115 |
| RRIRSRPPRLPRPRPRPHVCPRP | 0.0517 |
| RRIRKRPPRLPRPRPRPKPVPRP | 0.39 |

| Sequence | shrunken log2 fold change |
| --- | --- |
| RRIRLRPPRLPRPRPRPGRKPRP | 0.0459 |
| RRIRCRPPRLPRPRPRPALIPRP | -0.0928 |
| RRIRIRPPRLPRPRPRPRRGPRP | 0.184 |
| RRIRLRPPRLPRPRPRPGCGPRP | 0.49 |
| RRIRSRPPRLPRPRPRPVTMPRP | -0.312 |
| RRIRIRPPRLPRPRPRPSAAPRP | 0.0317 |
| RRIRWRPPRLPRPRPRPDISPRP | -0.135 |
| RRIRPRPPRLPRPRPRPFCTPRP | -0.00789 |
| RRIRLRPPRLPRPRPRPKEFPRP | -0.0126 |
| RRIRARPPRLPRPRPRPGQSPRP | 0.266 |
| RRIRARPPRLPRPRPRPQYAPRP | 0.0596 |
| RRIRARPPRLPRPRPRPIMQPRP | -0.0531 |
| RRIRRRPPRLPRPRPRPETKPRP | 0.511 |
| RRIRARPPRLPRPRPRPVDMPRP | -0.109 |
| RRIRCRPPRLPRPRPRPGSGPRP | 0.496 |
| RRIRIRPPRLPRPRPRPMTFPRP | -0.0432 |
| RRIRGRPPRLPRPRPRPEDVPRP | 0.157 |
| RRIRARPPRLPRPRPRPAHTPRP | 0.544 |
| RRIRERPPRLPRPRPRPITRPRP | -0.149 |
| RRIRQRPPRLPRPRPRPAPQPRP | 0.522 |
| RRIRCRPPRLPRPRPRPTAWPRP | 0.79 |
| RRIRERPPRLPRPRPRPAYAPRP | 0.0657 |
| RRIRARPPRLPRPRPRPYWKPRP | -0.0819 |
| RRIRERPPRLPRPRPRPINIPRP | -0.973 |
| RRIRQRPPRLPRPRPRPNIVPRP | -0.044 |

| Sequence | shrunken log2 fold change |
| --- | --- |
| RRIRPRPPRLPRPRPRPPWEPRP | 0.0889 |
| RRIRPRPPRLPRPRPRPYMWPRP | -0.455 |
| RRIRFRPPRLPRPRPRPDQLPRP | 0.22 |
| RRIRHRPPRLPRPRPRPECWPRP | 0.514 |
| RRIRLRPPRLPRPRPRPMKDPRP | -0.111 |
| RRIRQRPPRLPRPRPRPIRHPRP | -0.182 |
| RRIRERPPRLPRPRPRPIVPPRP | -0.25 |
| RRIRVRPPRLPRPRPRPHGEPRP | 0.0918 |
| RRIRLRPPRLPRPRPRPHHFPRP | -0.128 |
| RRIRRRPPRLPRPRPRPSSAPRP | 0.421 |
| RRIRRRPPRLPRPRPRPKPWPRP | 0.274 |
| RRIRMRPPRLPRPRPRPSWNPRP | -0.15 |
| RRIRTRPPRLPRPRPRPHPLPRP | -0.503 |
| RRIRTRPPRLPRPRPRPGLMPRP | 0.0921 |
| RRIRHRPPRLPRPRPRPYKHPRP | -0.512 |
| RRIRMRPPRLPRPRPRPYTRPRP | -0.013 |
| RRIRVRPPRLPRPRPRPRASPRP | 0.281 |
| RRIRSRPPRLPRPRPRPRQYPRP | -0.274 |
| RRIRHRPPRLPRPRPRPFQYPRP | -0.147 |
| RRIRLRPPRLPRPRPRPFCEPRP | -0.157 |
| RRIRPRPPRLPRPRPRPRINPRP | -0.16 |
| RRIRVRPPRLPRPRPRPLSRPRP | -0.132 |
| RRIRSRPPRLPRPRPRPTEYPRP | -0.206 |
| RRIRDRPPRLPRPRPRPPRYPRP | 0.244 |
| RRIRERPPRLPRPRPRPEYKPRP | -0.471 |

| Sequence | shrunken log2 fold change |
| --- | --- |
| RRIRRRPPRLPRPRPRPDLGPRP | 0.104 |
| RRIRCRPPRLPRPRPRPFPGPRP | -0.0106 |
| RRIRQRPPRLPRPRPRPGEDPRP | -0.0999 |
| RRIRKRPPRLPRPRPRPHRGPRP | 0.0594 |
| RRIRRRPPRLPRPRPRPLTTPRP | 0.311 |
| RRIRYRPPRLPRPRPRPGLAPRP | 0.323 |
| RRIRCRPPRLPRPRPRPTRNPRP | 0.444 |
| RRIRNRPPRLPRPRPRPPAIPRP | 0.276 |
| RRIRQRPPRLPRPRPRPKKVPRP | -0.0514 |
| RRIRHRPPRLPRPRPRPVVYPRP | -0.186 |
| RRIRVRPPRLPRPRPRPHINPRP | -0.524 |
| RRIRKRPPRLPRPRPRPIMSPRP | -0.00757 |
| RRIRARPPRLPRPRPRPDPQPRP | 0.698 |
| RRIRPRPPRLPRPRPRPFIIPRP | -0.854 |
| RRIRQRPPRLPRPRPRPFREPRP | -0.0101 |
| RRIRPRPPRLPRPRPRPMMLPRP | -0.143 |
| RRIRNRPPRLPRPRPRPMANPRP | -9.3e-05 |
| RRIRWRPPRLPRPRPRPHKKPRP | 0.028 |
| RRIRFRPPRLPRPRPRPVTRPRP | -0.0263 |
| RRIRSRPPRLPRPRPRPDPCPRP | 0.0809 |
| RRIRIRPPRLPRPRPRPDPEPRP | -0.158 |
| RRIRERPPRLPRPRPRPTNQPRP | -0.414 |
| RRIRERPPRLPRPRPRPLTSPRP | -0.00875 |
| RRIRRRPPRLPRPRPRPLWNPRP | 0.117 |
| RRIRMRPPRLPRPRPRPPLKPRP | 1.23 |

| Sequence | shrunken log2 fold change |
| --- | --- |
| RRIRQRPPRLPRPRPRPFRQPRP | -0.148 |
| RRIRPRPPRLPRPRPRPIYCPRP | -0.102 |
| RRIRDRPPRLPRPRPRPFDFPRP | 0.122 |
| RRIRFRPPRLPRPRPRPAKQPRP | -0.0234 |
| RRIRCRPPRLPRPRPRPEHYPRP | -0.625 |
| RRIRYRPPRLPRPRPRPGHAPRP | 3.02 |
| RRIRRRPPRLPRPRPRPYLRPRP | 0.0234 |
| RRIRGRPPRLPRPRPRPQMLPRP | -0.0638 |
| RRIRLRPPRLPRPRPRPFRLPRP | -0.0872 |
| RRIRIRPPRLPRPRPRPFYAPRP | -0.251 |
| RRIRKRPPRLPRPRPRPCCGPRP | 0.281 |
| RRIRYRPPRLPRPRPRPEDCPRP | -0.029 |
| RRIRWRPPRLPRPRPRPDRTPRP | 0.179 |
| RRIRCRPPRLPRPRPRPETPPRP | 1.91 |
| RRIRSRPPRLPRPRPRPFLVPRP | -0.361 |
| RRIRSRPPRLPRPRPRPHWRPRP | 0.39 |
| RRIRGRPPRLPRPRPRPNSGPRP | 0.00625 |
| RRIRWRPPRLPRPRPRPRYMPRP | -0.139 |
| RRIRVRPPRLPRPRPRPMCEPRP | 0.0553 |
| RRIRRRPPRLPRPRPRPIMKPRP | -0.0396 |
| RRIRRRPPRLPRPRPRPKETPRP | 0.17 |
| RRIRERPPRLPRPRPRPSCFPRP | -0.322 |
| RRIRARPPRLPRPRPRPMHNPRP | -0.00444 |
| RRIRARPPRLPRPRPRPVAQPRP | 0.661 |
| RRIRRRPPRLPRPRPRPCFEPRP | 0.0864 |
